Laboratory results: patent US20260193317A1, “COMBINATION THERAPY WITH ACTRIIB RECEPTOR VARIANTS AND GLP-1 AGONISTS” (35PHARMA Inc., priority 2023, published 2026)

Columns and labels:
[1] = Skeletal muscle mass and Mss51 expression in lean mice; assay type: in vivo; settings: 25 mg/kg twice weekly, seven days
Method: The effects of P1229 on body composition and metabolism in lean mice were further assessed.
Additional assays were performed to assess the relative expression level of Mss51, a skeletal muscle-specific gene. Mss51 is a key target of myostatin signaling, with a role in fatty acid oxidation, glycolysis, and oxidative phosphorylation.

[2] = system: diet-induced obese (DIO) mice; test: Body composition and metabolism in diet-induced obese (DIO) mice; assay type: in vivo; settings: 3 weeks s.c., P75, P1229 25 mg/kg twice weekly, P1373 5, 20, 50 mg/kg twice weekly, P1307 20 mg/kg weekly
Method: Experiments were performed to assess the effects of P1229 on body composition and metabolism in diet-induced obese (DIO) mice. DIO mice were purchased from Jackson Laboratories (#380050). Briefly, mice were fed a high-fat diet (HFD, 60% kcal from fat) from 6 weeks of age until 22 weeks of age (total of 16 weeks on the HFD). […] After 3 weeks of treatments, some animals were sacrificed and scanned by EchoMRI […] (FIGS. 11A-F), while others were sacrificed for tissue collection and RNA analysis. Animals were maintained on the HFD throughout the acclimatization and treatment periods. The murine version of bimagrumab used for these experiments comprises the heavy chain amino acid sequence of SEQ ID NO: 376 and the light chain sequence of SEQ ID NO: 377.

[3] = SEC-HPLC monomer and HMW content of purified fusion proteins; assay type: physicochemical; settings: after Protein A purification
Excerpt: Given that protein aggregation can be indicative of reduced conformational stability and decreased activity, Size-Exclusion Chromatography-High Performance Liquid Chromatography (SEC-HPLC) was used to determine the purity of each ActRIIB-ECD construct. This method measured the percentage of intact monomeric species as well as the presence of aggregates and/or degradation products.
All proteins expressed efficiently in CHO and/or 293 cells and purification efficiency of each using Protein A affinity chromatography was similar.

[4] = Single-injection body weight gain in wild-type mice; assay type: in vivo; settings: single 25 mg/kg subcutaneous injection, after 4 days, vs vehicle
Method: To investigate the target engagement of exemplary ActRIIB-ECD polypeptide constructs in vivo, mice (n=6/group) were injected with given agents (25 mg/kg, subcutaneous injection), and sacrificed after 4 days to assess body weight gain.

BMP-10 = biological target: T1, BMP-10 (UniProt O95393 317-424); test: cell-based or functional assay
T1 sequence (looked up): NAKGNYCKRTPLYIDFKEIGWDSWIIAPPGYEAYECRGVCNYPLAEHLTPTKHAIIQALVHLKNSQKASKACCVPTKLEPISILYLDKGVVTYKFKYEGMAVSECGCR

BMP-9 [5] = biological target: T2, BMP-9 (UniProt Q9UK05 320-429); test: cell-based or functional assay
T2 sequence (looked up): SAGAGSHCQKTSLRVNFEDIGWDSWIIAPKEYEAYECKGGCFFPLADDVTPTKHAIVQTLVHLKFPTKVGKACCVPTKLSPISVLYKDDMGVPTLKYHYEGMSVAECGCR

GDF-8 = GDF-8 (UniProt O14793 267-375); test: cell-based or functional assay
[6] = biological target: T3, recombinant human activin A (human, UniProt P08476 311-426); test: cell-based or functional assay
T3 sequence (looked up): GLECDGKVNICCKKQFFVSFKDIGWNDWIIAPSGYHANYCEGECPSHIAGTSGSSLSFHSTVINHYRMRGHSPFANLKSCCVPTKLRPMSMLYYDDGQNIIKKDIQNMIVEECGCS

GDF-11 = GDF-11 (UniProt O95390 299-407); test: cell-based or functional assay
activin B = biological target: T4, activin B (UniProt P09529 293-407); test: cell-based or functional assay
T4 sequence (looked up): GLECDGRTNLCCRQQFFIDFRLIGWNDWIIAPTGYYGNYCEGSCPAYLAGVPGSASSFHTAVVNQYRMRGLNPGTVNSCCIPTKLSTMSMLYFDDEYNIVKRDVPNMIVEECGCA

TGFβ superfamily ligands = test: Neutralization profile across TGFβ superfamily ligands (HEK293 and HepG2 reporter assays, summary); assay type: cell-based, human
Method: Potency testing by neutralization on cell-based assays. Characterization of the activin A, activin B, GDF-8, and GDF-11 inhibition potency (IC50) of the fusion proteins was performed using a cell-based reporter assay. TGFβ-reporter HEK293 cells were obtained from InvivoGen (San Diego, CA, cat. no. hkb-tgfb) and were maintained following the manufacturer's instructions. Briefly, cells were grown in high-glucose DMEM, containing 10% heat-inactivated FBS, 30 μg/mL blasticidin, 250 μg/mL hygromycin B, and 100 μg/mL zeocin (hereafter, “growth medium”). Once the cells reached 70-80% confluence, they were detached in growth medium by gently tapping on the flask. For all assays, cells were seeded in 96-well plates at a density of 20,000 cells per well in growth medium. Cells were left to attach for 10 minutes at room temperature (RT) prior to being transferred to a 37° C. incubator (5% CO2) overnight. The next day, treatments were prepared by combining the appropriate concentration of agent with activin A, activin B, GDF-8, or GDF-11 for 30 min at RT (shaking at 150 rpm). Treatments were conducted in high-glucose DMEM (serum-free and with no selection agents), and the final concentration of cytokine (ligand) was 0.3 nM. Growth medium was removed from the culture plates, and cells were treated with the appropriate mixes of fusion protein and cytokine. Treatment duration was for 18-22 h at 37° C. (5% CO2). All treatments were performed in technical duplicates and at least one or two independent experiments were conducted for each cytokine. At the end of the treatment period, supernatants were transferred to a new plate, and centrifuged at 300 RPM for 3 min. Forty microlitres of supernatant from each condition was transferred to a new plate, into which 180 μL of Quanti-Blue reagent (InvivoGen, cat. no. rep-qbs) was added. Quanti-Blue reagent was prepared following the manufacturer's instructions. Samples were incubated for 45 min at 37° C. At the end of the incubation, absorbance was read at 650 nm. The data were plotted in GraphPad Prism, which was used to calculate IC50 values as a non-linear regression.
Characterization of the BMP-9 and BMP-10 inhibition potency (IC50) of the fusion proteins was performed using a second cell-based reporter assay. Human hepatic HepG2 cells were transfected with a SEAP-encoding plasmid, in which SEAP expression is under the control of the murine Id1 promoter. A stable pool was generated from this transfection. Cells were grown in EMEM, containing 10% heat-inactivated FBS and 200 μg/mL zeocin (hereafter, “HepG2 growth medium”). […] For all assays, cells were seeded in 96-well plates at a confluence of 100,000 cells per well in HepG2 growth medium. Cells were left to attach for 10 minutes at RT prior to being transferred to a 37° C. incubator (5% CO2) overnight. The next day, treatments were prepared in EMEM (2.5% heat-inactivated FBS and with no selection agents) by combining the appropriate concentration of agent with BMP-9 or BMP-10 for 30 min at RT (shaking at 150 rpm). Treatments were conducted in EMEM (2.5% heat-inactivated FBS and with no selection agents), and the final concentration of BMP-9 and BMP-10 was 2 ng/mL and 40 ng/mL, respectively. HepG2 growth medium was removed from the culture plates, and cells were treated with the appropriate mixes of fusion protein and cytokine. Treatment duration was for 20-24 h at 37° C. (5% CO2). […]

BMP-9 [7] = biological target: T5, BMP-9 (Homo sapiens, UniProt Q9UK05); test: Small-scale BMP-9 ELISA with CHO supernatants; assay type: binding; settings: BMP-9 10 ng/mL
T5 sequence (Q9UK05 320-429): T2 sequence (looked up)
Method: Small-scale testing of ActRIIB-ECD fusion proteins. Additional investigation of a series of exemplary agents was performed using proteins expressed in CHO cells. Briefly, DNA encoding the ActRIIB-ECD-Fc fusion constructs was transfected in cells seeded in 12-well plates in a final volume of 1 ml. After 7 days, the supernatant was harvested, clarified, and the amount of expressed protein in each well was quantified using standard methods. The potency of each agent for inhibition of activin A, BMP-9 and BMP-10 was determined in three separate assays.
The next day, the plate was washed three times. […] Expressed proteins in the supernatants were diluted 1 in 2 in assay diluent (0.5% BSA, 0.05% tween-20 in PBS) and 100 μl was added to the 96-well plate in technical duplicates. After a 1.5-hour incubation at RT, the plate was washed three times. […] In this assay, a loss of signal indicates less binding of the exemplary agent to BMP-9. Results are expressed as a % of the signal obtained with wild-type ActRIIB-Fc (P75).

Chain of GDF-11 (O95390 299-407 limits assumed): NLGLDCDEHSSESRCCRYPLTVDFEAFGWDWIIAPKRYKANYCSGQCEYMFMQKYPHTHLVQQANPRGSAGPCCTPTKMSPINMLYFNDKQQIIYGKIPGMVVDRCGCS

P75: human wild type ActRIIB-ECD linked to human IgG1 Fc domain by a triple glycine linker; SEQ ID NO: 171; benchmark [reference compound]
tibialis anterior and gastrocnemius weight [1]: significantly increased | fat mass and lean mass (EchoMRI) [2]: promoted lean mass gain but less fat loss | high molecular weight (HMW) content (SEC-HPLC) [3]: 16% | monomer content (SEC-HPLC) [3]: 84% | body weight gain [4]: statistically significant body weight gain

B1: P1375 (Fc fusion)
chain: ETRECIYYNANWELERTNQSGLERCEGEQDKRWHCYASWRNSSGTIELVKKGCWLDDFNCYDRQECVATEENPQVYFCCCEGNFCNERFTHLPEAGGPEVTYEPPPTGGGGSGGGGSGGGGSGGGGTHTCPPCPAPELLGGPSVFLFPPKPKDTLYITREPEVTCVVVDVSHEDPEVKFNWYVDGVEVHNAKTKPREEQYNSTYRVVSVLTVLHQDWLNGKEYKCKVSNKALPAPIEKTISKAKGQPREPQVYTLPPSRDELTKNQVSLTCLVKGFYPSDIAVEWESNGQPENNYKTTPPVLDSDGSFFLYSKLTVDKSRWQQGNVFSCSVMHEALHNHYTQKSLSLSPG
BMP-10 IC50; BMP-reporter HepG2 cells (BMP-10): > 100 nM | BMP-9 IC50; BMP-reporter HepG2 cells (BMP-9 [5]): > 1000 nM | GDF-8 IC50; TGFβ-reporter HEK293 cells (GDF-8): 0.33 nM | Activin A IC50; TGFβ-reporter HEK293 cells [6]: 0.53 nM | GDF-11 IC50; TGFβ-reporter HEK293 cells (GDF-11): 0.39 nM | Activin B IC50; TGFβ-reporter HEK293 cells (activin B): 2 nM

B2: P1375: hActRIIB L33W, 19 aa linker, IgG1 YTE-DL Fc; SEQ ID 234 (protein)
chain: B1 chain
impact of modifications in the Fc sequence on activin A, activin B, GDF-8, and GDF-11 potency (TGFβ superfamily ligands; all ligands): comparable to P1373 | impact of modifications in the Fc sequence on BMP-9 and BMP-10 potency (TGFβ superfamily ligands; both ligands): comparable to P1373 | high molecular weight (HMW) content (SEC-HPLC) [3]: 0% | monomer content (SEC-HPLC) [3]: 99% | BMP-9 binding, ELISA signal relative to P75 (BMP-9 [7]): near-undetectable binding to BMP-9
